Assay: soluble on expression in E. coli; label from the status in PepcDB or PDB records

Sequence | soluble on expression in E. coli
MGSDKIHHHHHHDSFKTKSGKELTITFIKHGSLMLTYDNHSIQVDPVSEYADYTTFPKADIILITHEHGDHLDPKAIQAVEKSDTEIIANENSQKKLGKGKVLKNGDTDTSISYMKIEAVPAYNTTPGRDKYHPRHRDNGYILTFDGLRVYIAGDTEDIPEMKDLKDIDIAFLPVNQPYTMTVSQAAKAARMFSPKILYPYHYGDTKIGELKDALKDSGIDVRIRELQ | not soluble
MNNLIRLRDGVAEVCRDDPWQLLRELPDALPPGPLLLPLAAWLERRGEAGAAAPWLAPDDEVEALLPHFAELPLIAVDFPSFRDGRGYSLAYLLRVRLGWSGELRAVGDVLRDQLSHMRQCGFDAFAVREDKNVEDALKGLAGLSVLYGRSAIEPRPLFRRR | not soluble
MGSDKIHHHHHHMAIAIDFGTSNTVIARWNPVTQQPETITLPGLSIQQSLNPPLIPSLVYVEDANQAKILIGQQVRDRGLDLKGDTRFFRSFKRGIGADIQGFLPELDGQIVTFEQVGQWFLTEVIQQLAPLEGGLDSLVLTVPVDSFEAYRYWLGQVCQALPVEQVRMLDEPTAAALGYGLADQEILLVVDFGGGTLDLSLVQLNKSAQTNTKPVGFLLKWGNKSLAEESKQKTKTARVLAKAGQNLGGTDIDNWLVDYFTKTQGLAVSPLTTRLAERIKIQLSTQNQASEVYFDDENFESYELELNRDTLESILKEHSFFEQLDDAMANLLQQARRQGIELADINAVLLVGGTVQLPAVQTWVKQYFQPDKIRCEKPFEAIAQGALQLSQGVEIKDFLYHSYGVRYWDRRNQRHSWHSIIKAGQGYPMTQPVELVLGASLENQPSIELILGELGTETGGTEVYFDGDRLITRRLDTGVTSVKPLNDKEGARTIAQLTPPGFPGSDRIKILFQVDEQRFLRITVEDLLTNDTLLENQLVAQLS | not soluble
MTSAHDIDLQQILTDRLTGASPDLLRELLTMFIHTLMGAEADALCGAGYGQRSEERTNSRNGYRHRDFDTRVGTLDVAIPKLRSGSYFPDWLLERRKRAEKALTTVVATCYLLGVSTRRMDRLVDTLGITGLSKSQVSVMAKDLDTQVEAFRSRPLDTGPYTFVAADALVLKVRENGRVVNVHTLVAVGVNAEGYREILGVDVTSSEDGAGWLAFFRSLVARGLGGVRLVTSDAHAGLVAAIGGTLPGASWQRCRTHYSTNLMAVTPKASWPWVKTLLHSVYDQPDADSVHAQYDRIIGALSEKLPRVADHLDAARPDLLAFTAFPKQIWKQIWSNNPQERLNKEIRRRTDVVGIFPDRTALIRLVGAVLAEQHDEWIEGRRYLGLDVLARSRNDKPTDSSTESTEEVTPALTA | not soluble
MSKIYVLDTNVLLQDPNAIFSFEENEVVIPAVVLEEVDSKKRYMDEVGRNARHVSKLIDALRQKGRLHEHVPLDTGGTLRIELNHRSFHQLQEIFIEKTNDNRILAVAKNLSLEEETKENGRPVILVSKDVLVRVKADAIGLLAEDFLNDRVVDNDEMY | not soluble
MKILALDTSALVAAVAVMEDDRLLAEYMLNHRKTHSQQLVAMIREVLASLELAPKDIDVFAASTGPGSFTGLRIGVTTVKAMAYATGKPVVSVPTLDAIAYNIPMNSFTICPVMDARNNQVYTALYDWDENGQKRITDYMGIPVSELVQLIKDMGKKVIFAGDAAKMHEEYFTQELGDDCKIAPGNLLLQRASSVARLAYLKAMNNELESCFDMVPFYLRKSQAEREYEKKLCKDC | not soluble
EKITILADAIPELHVEEANDKVMGSIDWEAALKQSAGKEDLAQEMLQMLVDFIPEVNEWIDKALESDISEEELCHYIHKLHGSSSYCGVPRLKQLCNLIETSLRQHQTISDIEPELFELQDEMEKVTKDANLLLSN | not soluble
MKRIAFVFSTAPHGTAAGREGLDALLATSALTDDLAVFFIADGVFQLLPGQKPDAVLARDYIATFKLLGLYDIEQCWVCAASLRERGLDPQTPFVVEATPLEADALRRELANYDVILRF | soluble
MDTRDGNEKTRDAILDAAVMHVPFDGWSETTLRAAIRDSGVAPGLARALFPRGGVDLALAYHRRGDERMLEKAAAADLGALRYSERVAALIRFRLEAVEDKELVRRGSTLFSLPQHAGDGARALWGTADRIWTALGDSSRDLNWYTKRATLSAVYAATVLYWLGDDTPGHYATWEFLDRRIADVLRFEKMKTEAQRNPLLRAVTAGPRMVMRRVHAPAPPADVPGRSSRFLEHHHHHH | soluble
GIDPFTMLSSGDLTSASWELVVRVDHANGEQQTEITLRVSGDLHIGGVMLKLVEQMNIAQDWSDYALWWEQKRCWLLKTHWTLDKCGVQADANLLFTPQHKM | soluble
MGSDKIHHHHHHMNKEVDLSVSCLGKVKELKYDVIILPWGATEPHNLHLPYLTDCILPHDIAVEAAELALSRSGVRCMVMPPVPFGAHNPGQRELPFCIHTRYATQQAILEDIVSSLHVQGFRKLLILSGHGGNNFKGMIRDLAFEYPDFLIAAANWFEVVSPKGYFEAEIDDHAGESETSVMMHYHPELVNLAEAGDGESKPFAIASLNEKVAWVPRHWDKATVDSGVGNPKKATAEKGERYVKPIVEKLAGLFEEMAQHDLYE | not soluble
MADEVIEYKFTCSSFYYGRETSQVLNTSITKGLKCVWKTRYASIAEQAFFSWEFDWNELKRLGIDSLAGNITVKSASMSPLNVQIDLRKPTEIVERAFYLRDDDYAYNSYINKTTFEYSFVPYCAQVDESLYEKMFLPSDENDAILVIGNKKLHVCKAFLSYHSSFFRAIFSSAFKEGQMSEIPIKDVTYKDFALMLSTIYPDAVFPNDRTVEKLLEMGDRFIIQSVINHVEYHLLHNTSIGNEKLMWMADRYGMPKLLVKSIQQMNSIEKAKALKSSPDYAKLSKEAKEKILDRLMALI | not soluble
MVDFKLSPSQLEARRHAQAFANTVLTKASAEYSTQKDQLSRFQATRPFYREAVRHGLIKAQVPIPLGGTMESLVHESIILEELFAVEPATSITIVATALGLMPVILCDSPSLQEKFLKPFISGEGEPLASLMHSEPNGTANWLQKGGPGLQTTARKVGNEWVISGEKLWPSNSGGWDYKGADLACVVCRVSDDPSKPQDPNVDPATQIAVLLVTRETIANNKKDAYQILGEPELAGHITTSGPHTRFTEFHVPHENLLCTPGLKAQGLVETAFAMSAALVGAMAIGTARAAFEEALVFAKSDTRGGSKHIIEHQSVADKLIDCKIRLETSRLLVWKAVTTLEDEALEWKVKLEMAMQTKIYTTDVAVECVIDAMKAVGMKSYAKDMSFPRLLNEVMCYPLFDGGNIGLKRRQMQRVMALEDYEPWAATYGSSKVDKSRL | soluble
MGSDKIHHHHHHMKLAKFDTQPLPHFLMESATVDYAHADIRKLAAALSSDDSTATARHCFEWVRDHIEHSMDFHREEVTCAASDVLQQGTGLCTAKSHLLVALWRANQIPAGFCYQRLTLDGPNPPYCTHGFTAVWLNGRGWYRCDARGNSKPGIHCEFTPGQENLAFSSRYDGERTYPEVWAEPWPDLLTAMEKLQNISQYRSHPIDARPPAADLCVSESAAPNME | not soluble
MIPKVIHYFWFGRGKKNDVIERCMDSWKVHLPDYEIKEWNEDNFNVHINNFTLQAYQMKKWAFVSDYARLHILYHYGGIYLDTDLEITNSLDPFLDYEGFMGFFSNFDISGGIIGAAKGNKFIKKLLTYYENKNFIDGNGKIDEKTNVEIITEISKKHFGFVGENQTQQILDMTIFPKEYFTVRDVNVKNYAIHHYNASWLSHEEMNKHLKSYRKYYEFTVKWLDNLINNKIDLTPYKNKCIAIFGKGYIGELLVSYLQNNNVPIRQIIDTKFANDTYKDIPIVSSDTISDEVNLIIITPIHSFESIYLSLKEKSCADIISIENLLS | soluble
MEQDNSPQKIQFTVPLLEPHLDPEAAEQIRRRRPTPATLVLTSDQSSPEIDEDRIPNPHLKSTLAMSPRQRKKMTRITPTMKELQMMVEHHLGQQQQGEEPEGAAESTGTQESRPPGIPDTEVESRLGTSGTAKKTAECIPKTHERGSKEPSTKEPSTHIPPLDSKGANSV | soluble
MGSDKIHHHHHHMEMRFFVLGAGSWGTVFAQMLHENGEEVILWARRKEIVDLINVSHTSPYVEESKITVRATNDLEEIKKEDILVIAIPVQYIREHLLRLPVKPSMVLNLSKGIEIKTGKRVSEIVEEILGCPYAVLSGPSHAEEVAKKLPTAVTLAGENSKELQKRISTEYFRVYTCEDVVGVEIAGALKNVIAIAAGILDGFGGWDNAKAALETRGIYEIARFGMFFGADQKTFMGLAGIGDLMVTCNSRYSRNRRFGELIARGFNPLKLLESSNQVVEGAFTVKAVMKIAKENKIDMPISEEVYRVVYEGKPPLQSMRDLMRRSLKDEFWAS | soluble
MIERVKGTRDFLPEDMAKRRWVFEKIREVFEAYGFKEILTPVMEYTKLFQLRSGEEVVKQLYAFKDKGGRDVSLRPDMTSSVARLYVNSFQMAPKPIKWYYIANMFRYEEPQSGRYREFWQAGVELIGSDKVEADAEVIALFVESYLSTGLRDFTVNIGDRILLDEFAGMLGVSDDIGLMRIIDKRDKLSQEEFINLLKEFGLGESEIEKVLELVEIKGRPDNVLPLAEELFKSKKAKEEISKLYKLTDLLEWYGVKDWIRIDLGIARGFDYYTSIVFEAISPNELGIGSIGGGGRYDNLIEIFGGKPTPATGFAIGIERLLPILEWKGLIPKPQTGPEVFVIPLKDMEKVAINIAVKLRREKIKTDIELSGRKLGKALDYANRVGAKLVIIVGKRDVERGVVTIRDMESGEQYNVSLNEIVDKVKNLLKR | soluble
MGSDKIHHHHHHMVETYTLNPNLTKTAAVAEWLQQRIDWHIYLPNQRVPSVRKLAKLLNISSFTVVQAYEQLVATGVLIAKPSSGYYVNTQSKLVQPNDDKRKVFKHPVIDTRWLVQQVFSDIPHNRSPGVGTLPRDWVRNDKMEWAIRQVTQQADSFIYDYGNVQGYLPLRQQLVQHLHTLGMQTHADHVITTAGVSQAVTMVARLLTQAGDTVVVDGPGWYWLSSCLQQQGLNVVSVERDHQGPNIEQMQKLFAAHRPKLYLTNSVLHNPTSYNLHPARAHQVLNLIHEYDAYIFEDDLYAAFVPGGQVLRYASLDQFERVFYATGFSKSMASGWRVGMLVCPDNYIDDVLRIKTLSNSNTPEFGERVCHHLWTHGEYRRQIKKVQQHLYRAHERMRKALPKIRLIYPEHTQAGLFVWVDMGQDTSQLALDAYKEGWLVAPGQLFYPDVSASTHLRLNVSTTSDEFLRWLGDYLDKSCQY | not soluble
SAILALFFHMYSHNISSLSMKAQPERMHVLVLSSWRSGSSFVGQLFGQHPDVFYLMEPAWHVWMTFKQSTAWMLHMAVRDLIRAVFLCDMSVFDAYMEPGPRRQSSLFQWENSRALCSAPACDIIPQDEIIPRAHCRLLCSQQPFEVVEKACRSYSHVVLKEVRFFNLQSLYPLLKDPSLNLHIVHLVRDPRAVFRSRERTKGDLMIDSRIVMGQHEQKLKKEDQPYYVMQVICQSQLEIYKTIQSLPKALQERYLLVRYEDLARAPVAQTSRMYEFVGLEFLPHLQTWVHNITRGKGMGDHAFHTNARDALNVSQAWRWSLPYEKVSRLQKACGDAMNLLGYRHVRSEQEQRNLLLDLLSTWTVPEQIH | not soluble
MGHHHHHHSHMDNAERPRARRRRKPRVLFSQAQVYELERRFKQQRYLSAPERDQLASVLKLTSTQVKIWFQNRRYKCKRQRQDQTLELVGLPPPPPPPARRIAVPVLVRDGKPCLGD | soluble

— the DeepSol protein solubility set
